Each block holds one sequence with its values, some of them ahead of it.
Key:
HLA-A*02:01 [1] = test: IEDB peptide-MHC binding, purified MHC/competitive/fluorescence; filed as Kd, often an IC50 or EC50 that approximates it; ≥ and ≤ were set here for values at or beyond the usual limits of such assays
HLA-A*69:01 [2] = test: as above
HLA-B*15:17 = test: as above
HLA-B*27:03 = test: as above
HLA-B*57:01 = test: as above
HLA-B*46:01 = test: as above
HLA-B*15:01 [3] = test: as above
HLA-A*26:01 = test: as above
HLA-B*39:01 = test: as above
HLA-B*51:01 [4] = test: as above
HLA-B*18:01 [5] = test: as above
HLA-A*02:01 [6] = test: IEDB peptide-MHC binding, purified MHC/competitive/fluorescence; ≥ and ≤ were set here for values at or beyond the usual limits of such assays
HLA-A*11:01 = test: as above
HLA-A*02:17 = test: IEDB peptide-MHC binding, purified MHC/competitive/radioactivity; filed as Kd, often an IC50 or EC50 that approximates it; ≥ and ≤ were set here for values at or beyond the usual limits of such assays
HLA-A*02:01 [7] = test: as above
HLA-A*02:03 = test: as above
HLA-A*02:06 = test: as above
HLA-B*27:05 = test: IEDB peptide-MHC binding, purified MHC/direct/fluorescence; filed as Kd, often an IC50 or EC50 that approximates it; ≥ and ≤ were set here for values at or beyond the usual limits of such assays; settings: source organism: Reston ebolavirus - Reston
HLA-A*68:02 = test: IEDB peptide-MHC binding, purified MHC/competitive/radioactivity; filed as Kd, often an IC50 or EC50 that approximates it; ≥ and ≤ were set here for values at or beyond the usual limits of such assays; settings: source organism: Dengue virus 1 Brazil/97-11/1997
HLA-A*31:01 = test: as above; settings: source organism: Vaccinia virus WR
HLA-A*03:01 [8] = test: as above; settings: source organism: Vaccinia virus WR
HLA-A*68:01 = test: as above; settings: source organism: Vaccinia virus WR
HLA-A*33:01 = test: as above; settings: source organism: Vaccinia virus WR
HLA-B*08:01 = test: as above
HLA-B*15:01 [9] = test: IEDB peptide-MHC binding, purified MHC/competitive/fluorescence; ≥ and ≤ were set here for values at or beyond the usual limits of such assays; settings: source organism: Vaccinia virus
HLA-B*51:01 [10] = test: IEDB peptide-MHC binding, purified MHC/competitive/radioactivity; filed as Kd, often an IC50 or EC50 that approximates it; ≥ and ≤ were set here for values at or beyond the usual limits of such assays; settings: source organism: Dengue virus 2 Peru/IQT2913/1996
HLA-A*02:19 = test: IEDB peptide-MHC binding, purified MHC/direct/fluorescence; filed as Kd, often an IC50 or EC50 that approximates it; ≥ and ≤ were set here for values at or beyond the usual limits of such assays
HLA-A*02:01 [11] = test: as above
HLA-A*02:12 = test: as above
HLA-A*69:01 [12] = test: as above
HLA-A*02:11 = test: as above; settings: source organism: Sapporo rat virus
HLA-A*03:01 [13] = test: IEDB peptide-MHC binding, purified MHC/competitive/fluorescence; filed as Kd, often an IC50 or EC50 that approximates it; ≥ and ≤ were set here for values at or beyond the usual limits of such assays
HLA-A*24:02 = test: IEDB peptide-MHC binding, purified MHC/competitive/fluorescence; ≥ and ≤ were set here for values at or beyond the usual limits of such assays; settings: source organism: Variola virus
HLA-B*44:02 = test: IEDB peptide-MHC binding, purified MHC/direct/fluorescence; filed as Kd, often an IC50 or EC50 that approximates it; ≥ and ≤ were set here for values at or beyond the usual limits of such assays; settings: source organism: Influenza A virus (A/camel/Mongolia/1982(H1N1))
HLA-B*40:01 = test: as above; settings: source organism: Influenza A virus (A/camel/Mongolia/1982(H1N1))
HLA-B*18:01 [14] = test: as above; settings: source organism: Influenza A virus (A/camel/Mongolia/1982(H1N1))
HLA-A*30:01 = test: IEDB peptide-MHC binding, purified MHC/competitive/radioactivity; filed as Kd, often an IC50 or EC50 that approximates it; ≥ and ≤ were set here for values at or beyond the usual limits of such assays; settings: source organism: Dengue virus 4 Philippines/H241/1956
HLA-B*15:01 [15] = test: as above; settings: source organism: Dengue virus 3 China/80-2/1980
[16] = source organism: Sudan ebolavirus
[17] = source organism: Dengue virus 3 China/80-2/1980
[18] = source organism: Dengue virus 4 Philippines/H241/1956
[19] = source organism: Reston ebolavirus - Reston (1989)
[20] = source organism: Zaire ebolavirus
[21] = source organism: Dengue virus 1 Singapore/S275/1990
[22] = source organism: Dengue virus 1 Brazil/97-11/1997
[23] = source organism: Vaccinia virus
[24] = source organism: Dengue virus 2 Thailand/NGS-C/1944
[25] = source organism: Sapporo rat virus
[26] = source organism: Dengue virus 2 Jamaica/1409/1983
[27] = source organism: Neembucu hantavirus
[28] = source organism: Orthohantavirus negraense
[29] = source organism: Ebola virus - Mayinga, Zaire, 1976
[30] = source organism: Dengue virus 4 Dominica/814669/1981

- Kd (HLA-A*02:01 [1]; source organism: Homo sapiens): ≥ 20000 nM
- Kd (HLA-A*69:01 [2]; source organism: Homo sapiens): ≥ 20000 nM
- Kd (HLA-B*15:17; source organism: Homo sapiens): ≥ 20000 nM
- Kd (HLA-B*27:03; source organism: Homo sapiens): ≥ 20000 nM
- Kd (HLA-B*57:01; source organism: Homo sapiens): ≥ 20000 nM
- Kd (HLA-B*46:01; source organism: Homo sapiens): ≥ 20000 nM
- Kd (HLA-B*15:01 [3]; source organism: Homo sapiens): ≥ 20000 nM
- Kd (HLA-A*26:01; source organism: Homo sapiens): ≥ 20000 nM
- Kd (HLA-B*39:01; source organism: Homo sapiens): ≥ 20000 nM
- Kd (HLA-B*51:01 [4]; source organism: Homo sapiens): ≥ 20000 nM
- Kd (HLA-B*18:01 [5]; source organism: Homo sapiens): ≥ 20000 nM
Sequence: YSDNEMLTH

Sequence: SMPLGVVTN
- IC50 (HLA-A*02:01 [6]; [16]): ≥ 115000 nM
- IC50 (HLA-A*11:01; [16]): ≥ 163000 nM

Sequence: MMMLPATLA
- Kd (HLA-A*02:17; [17]): 106 nM
- Kd (HLA-A*02:01 [7]; [17]): 27.6 nM
- Kd (HLA-A*02:03; [17]): 28.6 nM

Sequence: VILAGPIPV
- Kd (HLA-A*02:17; [18]): 995 nM
- Kd (HLA-A*02:01 [7]; [18]): 6.74 nM
- Kd (HLA-A*02:06; [18]): 132 nM

Sequence: GRYNLVPPK
- Kd (HLA-A*02:01 [1]; [19]): ≥ 20000 nM
- Kd (HLA-A*69:01 [2]; [19]): ≥ 20000 nM
- Kd (HLA-B*15:17; [19]): ≥ 20000 nM
- Kd (HLA-B*57:01; [19]): ≥ 20000 nM
- Kd (HLA-B*46:01; [19]): ≥ 20000 nM
- Kd (HLA-B*15:01 [3]; [19]): ≥ 20000 nM
- Kd (HLA-A*26:01; [19]): ≥ 20000 nM
- Kd (HLA-B*39:01; [19]): ≥ 20000 nM
- Kd (HLA-B*51:01 [4]; [19]): ≥ 20000 nM
- Kd (HLA-B*18:01 [5]; [19]): ≥ 20000 nM
- Kd (HLA-B*27:05): 97.6 nM

Sequence: LGLDDQEKK
- IC50 (HLA-A*11:01; [20]): 30700 nM

Sequence: TLTAAVLMLV
- Kd (HLA-A*02:17; [21]): 1060 nM
- Kd (HLA-A*02:01 [7]; [21]): 3.97 nM
- Kd (HLA-A*68:02): 1.58 nM
- Kd (HLA-A*02:03; [22]): 3.45 nM

Sequence: ETITEKTFK
- IC50 (HLA-A*11:01; source organism: Vaccinia virus Copenhagen): 5570 nM
- Kd (HLA-A*31:01): 823 nM
- Kd (HLA-A*03:01 [8]): 3060 nM
- Kd (HLA-A*68:01): 12.1 nM
- Kd (HLA-A*33:01): 2.6 nM

Sequence: LLMLLPTAL
- Kd (HLA-A*02:17; [21]): 11.6 nM
- Kd (HLA-B*08:01; [22]): 6.42 nM
- Kd (HLA-A*02:01 [7]; [21]): 7.54 nM
- Kd (HLA-A*02:03; [22]): 31 nM

Sequence: GVVVSTNRL
- IC50 (HLA-A*02:01 [6]; [23]): 9530 nM
- IC50 (HLA-A*11:01; [23]): ≥ 80000 nM

Sequence: TLQVSDVDK
- IC50 (HLA-A*11:01; [20]): 41900 nM

Sequence: KSNIEETKF
- IC50 (HLA-B*15:01 [9]): ≥ 481000 nM

Sequence: FLFLMSGRGI
- Kd (HLA-A*02:17; [24]): 726 nM
- Kd (HLA-A*02:01 [7]; [24]): 4.21 nM
- Kd (HLA-B*51:01 [10]): 7910 nM
- Kd (HLA-A*02:03; source organism: Dengue virus 2 Peru/IQT2913/1996): 6.33 nM

Sequence: SLTECPTFL
- Kd (HLA-A*02:19; [25]): 41 nM
- Kd (HLA-A*02:01 [11]; source organism: Amur virus): ≤ 1 nM
- Kd (HLA-A*02:12; [25]): 5 nM
- Kd (HLA-A*69:01 [12]; source organism: Amur virus): ≥ 20000 nM
- Kd (HLA-A*02:11): ≤ 1 nM

Sequence: WLVHRQWFL
- Kd (HLA-A*02:17; [26]): 61.8 nM
- Kd (HLA-B*08:01; [26]): 8.69 nM
- Kd (HLA-A*02:01 [7]; [26]): 2.4 nM
- Kd (HLA-A*02:06; [26]): 156 nM

- Kd (HLA-A*03:01 [13]; source organism: Escherichia coli str. K-12 substr. MG1655): 116 nM
Sequence: KIEAPLLLH

Sequence: NCYNLEIKK
- IC50 (HLA-A*11:01; [16]): ≥ 72400 nM

Sequence: ALPVYLMTL
- Kd (HLA-A*02:17; [18]): 1.77 nM
- Kd (HLA-A*02:01 [7]; [18]): 10.9 nM

Sequence: DIIIAVARK
- IC50 (HLA-A*11:01; source organism: Variola virus): ≥ 177000 nM
- IC50 (HLA-A*24:02): 61600 nM

Sequence: GLLCVMASSV
- Kd (HLA-A*02:17; [21]): 151 nM
- Kd (HLA-A*02:01 [7]; [21]): 11.4 nM
- Kd (HLA-A*02:03; [21]): 26 nM

Sequence: ILYMLSWGK
- Kd (HLA-A*03:01 [13]; [27]): 155 nM
- Kd (HLA-A*69:01 [2]; [27]): ≥ 20000 nM
- Kd (HLA-B*15:17; [27]): ≥ 20000 nM
- Kd (HLA-B*27:03; [27]): ≥ 20000 nM
- Kd (HLA-B*57:01; [27]): ≥ 20000 nM
- Kd (HLA-B*46:01; [27]): ≥ 20000 nM
- Kd (HLA-B*15:01 [3]; [27]): ≥ 20000 nM
- Kd (HLA-A*26:01; [27]): ≥ 20000 nM
- Kd (HLA-B*39:01; [27]): ≥ 20000 nM
- Kd (HLA-B*51:01 [4]; [27]): ≥ 20000 nM
- Kd (HLA-B*18:01 [5]; [27]): ≥ 20000 nM
- Kd (HLA-A*02:19; [28]): ≥ 20000 nM
- Kd (HLA-A*02:12; [28]): ≥ 20000 nM

Sequence: ILAKAIFKL
- Kd (HLA-A*02:17; [18]): 37.9 nM
- Kd (HLA-A*02:01 [7]; [18]): 14 nM

Sequence: LLADGLAKA
- Kd (HLA-A*02:01 [11]; [29]): 25.7 nM
- Kd (HLA-A*02:12; source organism: Ravn virus - Ravn, Kenya, 1987): 4 nM
- Kd (HLA-A*69:01 [12]; [29]): 848 nM

Sequence: MLLILCTSQI
- Kd (HLA-A*02:17; [21]): 182 nM
- Kd (HLA-A*02:01 [7]; [21]): 75.8 nM

Sequence: VLVGVVTLYL
- Kd (HLA-A*02:17; [26]): 1570 nM
- Kd (HLA-A*02:01 [7]; [26]): 62 nM

Sequence: VLMMRTTWA
- Kd (HLA-A*02:17; [26]): 15200 nM
- Kd (HLA-B*08:01; [26]): 12.8 nM
- Kd (HLA-A*02:01 [7]; [26]): 34.6 nM
- Kd (HLA-A*02:03; [26]): 13.5 nM

Sequence: TLATGPILTL
- Kd (HLA-A*02:17; [30]): 687 nM
- Kd (HLA-A*02:01 [7]; [30]): 65.4 nM
- Kd (HLA-A*02:03; [30]): 12.1 nM

Sequence: SLCLMMMLPA
- Kd (HLA-A*02:17; [17]): 11700 nM
- Kd (HLA-A*02:01 [7]; [17]): 65.7 nM

Sequence: RLCRFRKSK
- Kd (HLA-A*03:01 [13]; source organism: Yersinia pestis Nepal516): 121 nM

Sequence: MEYDAVATT
- Kd (HLA-B*44:02): ≥ 20000 nM
- Kd (HLA-B*40:01): 706 nM
- Kd (HLA-B*18:01 [14]): ≤ 1 nM

Sequence: KMKKKTWLV
- Kd (HLA-A*30:01): 17.2 nM
- Kd (HLA-A*02:17; [18]): 65 nM
- Kd (HLA-B*08:01; [18]): 93.5 nM
- Kd (HLA-A*02:01 [7]; [18]): 66.6 nM
- Kd (HLA-A*02:03; [18]): 31 nM

Sequence: LMMMLPATL
- Kd (HLA-A*02:17; [17]): 227 nM
- Kd (HLA-B*08:01; [17]): 18.7 nM
- Kd (HLA-B*15:01 [15]): 87.1 nM
- Kd (HLA-A*02:03; [17]): 6.62 nM

From the Immune Epitope Database (IEDB)
